According to patent US20060134737A1 (VLAAMS INTERUNIVERSITAIR INSTITUUT VOOR BIOTECHNOLOGIE VZW, published 2006):

Target: T1, cMyc-tagged Smurf2 (C716G), ligase inactive point mutant (UniProt Q9HAU4 1-748, limits assumed)
T1 construct: whole, on cells; Expressed from pCAGGS in HEK293T cells; co-immunoprecipitation from lysates; also called cMyc-Smurf2 (C716G); c-myc-Smurf2(C716G); not shown: cMyc tag
Experiment: co-immunoprecipitation of TNF-R2 with utr-1 from HEK293T lysates without cotransfected TRAF2, anti-cMyc Western blot

T1 sequence (Q9HAU4 whole entry C716G): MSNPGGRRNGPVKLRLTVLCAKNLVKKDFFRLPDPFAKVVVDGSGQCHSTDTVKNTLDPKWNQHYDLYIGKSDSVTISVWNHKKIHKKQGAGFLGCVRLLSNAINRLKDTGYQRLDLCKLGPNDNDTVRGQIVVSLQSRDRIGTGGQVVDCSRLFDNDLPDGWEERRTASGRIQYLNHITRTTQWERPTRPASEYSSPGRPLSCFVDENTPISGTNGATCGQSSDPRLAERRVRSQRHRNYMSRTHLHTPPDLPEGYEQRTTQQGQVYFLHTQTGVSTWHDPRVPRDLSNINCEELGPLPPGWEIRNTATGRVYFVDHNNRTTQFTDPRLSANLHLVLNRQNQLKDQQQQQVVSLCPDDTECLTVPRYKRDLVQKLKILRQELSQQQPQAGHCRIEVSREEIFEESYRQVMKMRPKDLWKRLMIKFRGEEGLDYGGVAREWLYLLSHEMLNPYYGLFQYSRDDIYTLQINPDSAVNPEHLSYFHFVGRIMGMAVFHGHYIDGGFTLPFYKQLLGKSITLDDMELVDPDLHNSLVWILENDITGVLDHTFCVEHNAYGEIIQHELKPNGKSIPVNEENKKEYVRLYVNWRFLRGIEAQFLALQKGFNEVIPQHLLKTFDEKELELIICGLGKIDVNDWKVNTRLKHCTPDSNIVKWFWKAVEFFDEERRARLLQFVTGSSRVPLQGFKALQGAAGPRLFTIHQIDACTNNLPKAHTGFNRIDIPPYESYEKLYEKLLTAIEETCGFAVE

- binding result: no binding
B1: TNF receptor 2 (TNF-R2) wild type, pcDNAI-hTNF-R2 (receptor, UniProt P20333 23-461, looked up)
chain: LPAQVAFTPYAPEPGSTCRLREYYDQTAQMCCSKCSPGQHAKVFCTKTSDTVCDSCEDSTYTQLWNWVPECLSCGSRCSSDQVETQACTREQNRICTCRPGWYCALSKQEGCRLCAPLRKCRPGFGVARPGTETSDVVCKPCAPGTFSNTTSSTDICRPHQICNVVAIPGNASMDAVCTSTSPTRSMAPGAVHLPQPVSTRSQHTQPTPEPSTAPSTSFLLPMGPSPPAEGSTGDFALPVGLIVGVTALGLLIIGVVNCVIMTQVKKKPLCLQREAKVPHLPADKARGTQGPEQQHLLITAPSSSSSSLESSASALDRRAPTRNQPQAPGVEASGAGEARASTGSSDSSPGGHGTQVNVTCIVNVCSSSDHSSQCSSQASSTMGDTDSSPSESPKDEQVPFSKEECAFRSQLETPETLLGSTEEKPLPLGVPDAGMKPS
notes: also called TNF-R2 WT
